From patent CN117751141A

T1: 小鼠CD300c抗原 (小鼠 (mouse))
T1 sequence (A2A7V7 whole entry, looked up): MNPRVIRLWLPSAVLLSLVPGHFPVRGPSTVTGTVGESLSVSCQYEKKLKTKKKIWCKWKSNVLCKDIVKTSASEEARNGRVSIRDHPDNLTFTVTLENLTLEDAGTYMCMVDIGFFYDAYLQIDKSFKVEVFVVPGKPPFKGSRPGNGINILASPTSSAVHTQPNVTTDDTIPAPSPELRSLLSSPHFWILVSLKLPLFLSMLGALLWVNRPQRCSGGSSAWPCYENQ

T2: CD300c抗原(11832-H08H，义翘神州) (UniProt Q08708)
T2 sequence (looked up): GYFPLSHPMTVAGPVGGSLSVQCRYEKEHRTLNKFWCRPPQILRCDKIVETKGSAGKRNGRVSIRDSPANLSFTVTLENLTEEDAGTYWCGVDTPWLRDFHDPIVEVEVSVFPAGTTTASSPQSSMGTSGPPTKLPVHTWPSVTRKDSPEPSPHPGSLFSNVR

T3: CD300c overexpressed on the surface of 293T cells and THP-1 cells (UniProt Q08708)
T3 sequence (looked up): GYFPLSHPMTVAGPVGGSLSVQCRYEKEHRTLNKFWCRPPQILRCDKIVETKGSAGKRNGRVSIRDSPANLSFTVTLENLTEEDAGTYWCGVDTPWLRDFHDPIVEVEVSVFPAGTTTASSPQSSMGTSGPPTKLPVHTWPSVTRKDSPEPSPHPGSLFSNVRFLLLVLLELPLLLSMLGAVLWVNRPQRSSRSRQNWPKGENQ


Key:
小鼠CD300c抗原 (小鼠 (mouse)) = target: T1, 小鼠CD300c抗原 (小鼠 (mouse)); test: cell-based or functional assay
[1] = target: T2, CD300c抗原(11832-H08H，义翘神州); test: binding ELISA, CD300c antigen coated at 8 μg/mL, HRP anti-Fc IgG
[2] = target: T2, CD300c抗原(11832-H08H，义翘神州); test: SPR, CD300c immobilised on CM5 chip (399.2 RU), CL7 0-6.25 μg/mL as analyte
[3] = target: T3, CD300c overexpressed on the surface of 293T cells and THP-1 cells; test: flow cytometry (FACS binding) on 293T cells overexpressing CD300c, FITC anti-human IgG (H+L), MFI
[4] = target: T3, CD300c overexpressed on the surface of 293T cells and THP-1 cells; test: flow cytometry (FACS binding) on THP-1 cells overexpressing CD300c, FITC anti-human IgG (H+L), MFI

Binder	EC50 [1]	also measured
抗CD300c单克隆抗体 CL10 (antibody, from another filing, V domains shown) VH: EVQLLESGGGLVQPGGSLRLSCAASGFTFSSYGMHWVRQAPGKGLEWVSAISGSGGSTYYADSVKGRFTISRDNSKNTLYLQMNSLRAEDTAVYYCASGYGLMDVWGQGTLVTVSS VL: QSVLTQPPSASGTPGQRVTISCTRSSGIIASNYVQWYQQLPGTAPKLLIYRNNQRPSGVPDRFSGSKSGTSASLAISGLRSEDEADYYCSSYAGNNNLVFGGGTKLTVL	0.039 µg/mL	癌细胞增殖抑制作用 (CT26 mouse colorectal cancer cells, CCK-8, 10 μg/mL antibody, 5 days) (小鼠CD300c抗原 (小鼠 (mouse))): 15 %
抗CD300c单克隆抗体 SK11 (antibody, from another filing, V domains shown) VH: RVQLLESGGGLVQPGGSLRLSCAASGFTFSTYGMHWVRQAPGKGLEWVSAISGSGGSTYYADSVKGRFTISRDNSKNTLYLQMNSLRAEDTAVYYCARGLSGLDYWGQGTLVTVSS VL: EIVLTQSPGTLSLSPGERATLSCRSSQGITNYLAWYQQKPGQAPRLLIYDASNRATGIPDRFSGSGSGTDFTLTISRLEPEDFAVYYCQQSYSTPLTFGQGTKVEIK	0.052 µg/mL	
抗CD300c单克隆抗体 CK2 (antibody, from another filing, V domains shown) VH: EVQLLESGGGLVQPGGSLRLSCAASGFTFSSYGMHWVRQAPGKGLEWVSAISGSGTSIYYADSVKGRFTISRDNSKNTLYLQMNSLRAEDTAVYYCARGGTAFDYWGQGTLVTVSS VL: EIVLTQSPGTLSLSPGERATLSCRASQRSDNYLAWYQQKPGQAPRLLIYDASNRATGIPDRFSGSGSGTDFTLTISRLEPEDFAVYYCQQSYSTPFTFGQGTKVETK	0.033 µg/mL	
抗CD300c单克隆抗体 SK15 (antibody, from another filing, V domains shown) VH: RVQLLESGGGLVQPGGSLRLSCAASGFTFSSYAMHWVRQAPGKGLEWVSAINGSGGSTYYADSVKGRFTISRDNSKNTLYLQTNSLRAEDTAVYYCARGLQGFDYWGQGTLVTVSS VL: EIVLTQSPGTLSLSPGERATLSCQASQDITNYLNWYQQKPGQAPRLLIYDASSLETGIPDRFSGSGSGTDFTLTISRLEPEDFAVYYCQQSYSTPITFGQGTKVEIK	14.7 µg/mL	
抗CD300c单克隆抗体 CL7 (antibody, from another filing, V domains shown) VH: EVQLLESGGGLVQPGGSLRLSCAASGFTFSRYAMSWVRQAPGKGLEWVSAISGSGGSTYYADSVKGRFTISRDNSKNTLYLQMNSLRAEDTAVYYCARSSQGIFDIWGQGTLVTVSS VL: QSVLTQPPSASGTPGQRVTISCSGNNIGTRRVHWYQQLPDTAPKLLIYSKNNRPSGVPDRFSGSKSGTSASLAISGLRSEDEADYYCAAWDDSLSGPVFGGGTKLTVL	0.047 µg/mL	癌细胞增殖抑制作用 (CT26 mouse colorectal cancer cells, CCK-8, 10 μg/mL antibody, 5 days) (小鼠CD300c抗原 (小鼠 (mouse))): 66 %; Kd [2]: 0.52 nM; EC50 [3]: 2.7 nM; EC50 [4]: 2.6 nM
抗CD300c单克隆抗体 CL9 (antibody, from another filing, V domains shown) VH: EVQLLESGGGLVQPGGSLRLSCAASGFTFSSYYWSWVRQAPGKGLEWVSAISGSGGSTYYADSVKGRFTISRDNSKNTLYLQMNSLRAEDTAVYYCARIDVYGFDIWGQGTLVTVSS VL: QSVLTQPPSASGTPGQRVTISCSGSTSNIGTNYVYWYQQLPGTAPKLLIYDNNNRPSGVPDRFSGSKSGTSASLAISGLRSEDEADYYCQTWDSSTDVVFGGGTKLTVL	0.094 µg/mL	
抗CD300c单克隆抗体 SK12 (antibody, from another filing) RVQLLESGGGLVQPGGSLRLSCAASGFTFSSYAMHWVRQAPGKGLEWVSAISGSGGDTYHADSVKGRFTISRDNSKNTLYLQMNSLRAEDTAVYYCTRGLSGFDYWGQGTLVTVSSGGGGSGGGGSGGGGSEIVLTQSPGTLSLSPGERATLSCRASQSISSYLNWYQQKPGQAPRLLIYDASNRAPGIPDRFSGSGSGTDFTLTISRLEPEDFAVYYCQQSYSIPITFGQGTKVEIK	0.067 µg/mL	
抗CD300c单克隆抗体 SL18 (antibody, from another filing) RVQLLESGGGLVQPGGSLRLSCAASGFTFSDYHMHWVRQAPGKGLEWVSTISSSGGYTYYAESVKSRFTISRDNSKNTLYLQMNSLRAEDTAVYYCARSIRLPLDYWGQGTLVTVSSSGGGSGGGGSGGGGSQSVLTQPPSASGTPGQRVTISCSGNNIGSKGVHWYQQLPGTAPKLLIYEDSKRPSGVRDRFSGSKSGTSASLAISGLRSEDEADYYCQSYDSTKGVVFGGGTKLTVL	0.17 µg/mL	癌细胞增殖抑制作用 (CT26 mouse colorectal cancer cells, CCK-8, 10 μg/mL antibody, 5 days) (小鼠CD300c抗原 (小鼠 (mouse))): 38 %
抗CD300c单克隆抗体 CL4 (antibody, from another filing, V domains shown) VH: RVQLLESGGGLVQPGGSLRLSCAASGFTFGSNYMSWVRQAPGKGLEWVSTISGSGTSTYYADSLKGRFTISRDNSKNTLYLQMNSLRAEDTAVYYCARGMWGMDVWGQGTLVTVSS VL: QSVLTQPPSASGTPGQRVTISCTGKHRHTVNWYQLLPGTAPKLLIYLDSERPSGVPDRFSGSKSGTSASLAISGLRSEDEADYYCQSYDSSSVVFGGGTKLTVL	0.031 µg/mL	
抗CD300c单克隆抗体 CL6 (antibody, from another filing, V domains shown) VH: EVQLLESGGGLVQPGGSLRLSCAASGFTFSSYGMHWVRQAPGKGLEWVSAISGSGGSTYYADSVKGRFTISRDNSKNTLYLQMNSLRAEDTAVYYCAVSGAGRGFFDYWGQGTLVTVSS VL: QSVLTQPPSASGTPGQRVTISCSGSSSNIGSNYVYWYQQLPGTAPKLLIYEDNKRPSGVPDRFSGSKSGTSASLAISGLRSEDEADYYCSSYTSSSTVIFGGGTKLTVL	0.148 µg/mL	
抗CD300c单克隆抗体 SK13 (antibody, from another filing, V domains shown) VH: RVQLLESGGGLVQPGGSLRLSCAASGFTFSDYAMSWVRQAPGKGLEWVSSISSSSSYIYYTDSVKGRFTISRDNSKNTLYLQMNSLRAEDTAVYYCARGGYGFDYWGQGTLVTVSS VL: EIVLTQSPGTLSLSPGERATLSCRASQSISSYLNWYQQKPGQAPRLLIYSASSRPQGIPDRFSGSGSGTDFTLTISRLEPEDFAVYYCQQYDDLPFTFGQGTKVEIK	0.044 µg/mL	
抗CD300c单克隆抗体 SK16 (antibody, from another filing, V domains shown) VH: RVQLLESGGGLVQPGGSLRLSCAASGFTFSSYAMSWVRQAPGKGLEWVSAINGSGGSTLYADSVKGRFTISRDNSKNTLYLQMNSLRAEDTAVYYCARGVSGFDSWGQGTLVTVSS VL: EIVLTQSPGTLSLSPGERATLSCRISQSISSYLNWYQQKPGQAPRLLIYDASLRATGIPDRFSGSGSGTDFTLTISRLEPEDFAVYYCQQSYKTPITFGQGTKVEIK	2.42 µg/mL	
抗CD300c单克隆抗体 CK1 (antibody, from another filing, V domains shown) VH: EVQLLESGGGLVQPGGSLRLSCAASGFTFSRYAMTWVRQAPGKGLEWVSSMSGTGGTTYYADSVKGRFTISRDNSKNTLYLQMNSLRAEDTAVYYCARGAYGFDHWGQGTLVTVSS VL: EIVLTQSPGTLSLSPGERATLSCRASQSIGNYLNWYQQKPGQAPRLLIYDASNLETGIPDRFSGSGSGTDFTLTISRLEPEDFAVYYCQQSSAIPYTFGQGTKVEIK	0.056 µg/mL	
抗CD300c单克隆抗体 CK3 (antibody, from another filing, V domains shown) VH: RVQLLESGGGLVQPGGSLRLSCAASGFTFSSYAISWVRQAPGKGLEWVSATSGSGRATYYADSVKGRFTISRDNSKNTLYLQMNSLRAEDTAVYYCARDTWWEGYFDLWGQGTLVTVSS VL: EIVLTQSPGTLSLSPGERATLSCQASHISTHLNWYQQKPGQAPRLLIYGASSRATGIPDRFSGSGSGTDFTLTISRLEPEDFAVYYCQQYNTYPPTFGQGTKVEIK	0.793 µg/mL	
抗CD300c单克隆抗体 SK17 (antibody, from another filing, V domains shown) VH: EVQLLESGGGLVQPGGSLRLSCAASGFTFSSYYWSWVRQAPGKGLEWVSTITGSGGSTDYANSVKGRFTISRDNSKNTLYLQMNSLRAEDTAVYYCATGGGIFDYWGQGTLVTVSS VL: EIVLTQSPGTLSLSPGERATLSCQASQTISNYLNWYQQKPGQAPRLLIYDASNRATGIPDRFSGSGSGTDFTLTISRLEPEDFAVYYCQQYNSYPPSFGQGTKVEIK	0.054 µg/mL	
抗CD300c单克隆抗体 CL5 (antibody, from another filing, V domains shown) VH: RVQLLESGGGLVQPGGSLRLSCAASGFTFSSYAMHWVRQAPGKGLEWVSSISGGGYGTYYADSVKGRFTISRDNSKNTLYLQMNSLRAEDTAVYYCARSTVWAFDIWGQGTLVTVSS VL: QSVLTQPPSASGTPGQRVTISCSGNNIGSKSVHWYQQLPGTAPKLLIYDVSKRPSERPDRFSGSKSGTSASLAISDLRSEDEADYYCQSFDSSGTWIFGGGTKLTVL	0.032 µg/mL	
抗CD300c单克隆抗体 SK14 (antibody, from another filing) EVQLLESGGGLVQPGGSLRLSCAASGFTFSNFAIAWVRQAPGKGLEWVSAISGRGTSTYYADSVKGRFTISRDNSKNTLYLQMNSLRAEDTAVYYCARGVSGFDSWGQGTLVTVSSGGGGSGGGGSGGGGSEIVLTQSPGTLSLSPGERATLSCRASQSISSHLAWYQQKPGQAPRLLIYDTSNRATGIPDRFSGSGSGTDFTLTISRLEPEDFAVYYCQQSYSTPFTFGQGTKVEIK	0.065 µg/mL	
